B1: PXR: Pregnane X Receptor (NR1I2), cDNA driver (protein, UniProt O75469 1-434, looked up)
Nuclear receptor subfamily 1 …: MEVRPKESWNHADFVHCEDTESVPGKPSVNADEEVGGPQICRVCGDKATGYHFNVMTCEGCKGFFRRAMKRNARLRCPFRKGACEITRKTRRQCQACRLRKCLESGMKKEMIMSDEAVEERRALIKRKKSERTGTQPLGVQGLTEEQRMMIRELMDAQMKTFDTTFSHFKNFRLPGVLSSGCELPESLQAPSREEAAKWSQVRKDLCSLKVSLQLRGEDGSVWNYKPPADSGGKEIFSLLPHMADMSTYMFKGIISFAKVISYFRDLPIEDQISLLKGAAFELCQLRFNTVFNAETGTWECGRLSYCLEDTAGGFQQLLLEPMLKFHYMLKKLQLHEEEYVLMQAISLFSPDRPGVLQHRVVDQLQEQFAITLKSYIECNRPQPAHRFLFLKIMAMLTELRSINAQHTQRLLRIQDIHPFATPLMQELFGITGS
B2: RARa: Retinoic acid receptor α (NR1B1), nuclear hormone receptor cDNA driver (protein, UniProt P10276 1-462, looked up)
Retinoic acid receptor alpha: MASNSSSCPTPGGGHLNGYPVPPYAFFFPPMLGGLSPPGALTTLQHQLPVSGYSTPSPATIETQSSSSEEIVPSPPSPPPLPRIYKPCFVCQDKSSGYHYGVSACEGCKGFFRRSIQKNMVYTCHRDKNCIINKVTRNRCQYCRLQKCFEVGMSKESVRNDRNKKKKEVPKPECSESYTLTPEVGELIEKVRKAHQETFPALCQLGKYTTNNSSEQRVSLDIDLWDKFSELSTKCIIKTVEFAKQLPGFTTLTIADQITLLKAACLDILILRICTRYTPEQDTMTFSDGLTLNRTQMHNAGFGPLTDLVFAFANQLLPLEMDDAETGLLSAICLICGDRQDLEQPDRVDMLQEPLLEALKVYVRKRRPSRPHMFPKMLMKITDLRSISAKGAERVITLKMEIPGSMPPLIQEMLENSEGLDTLSGQPGGGGRDGGGLAPPPGSCSPSLSPSSNRSSPATHSP
B3: RARb: Retinoic acid receptor β (NR1B2), nuclear hormone receptor cDNA driver (protein, UniProt P10826 1-455, looked up)
Retinoic acid receptor beta: MTTSGHACPVPAVNGHMTHYPATPYPLLFPPVIGGLSLPPLHGLHGHPPPSGCSTPSPATIETQSTSSEELVPSPPSPLPPPRVYKPCFVCQDKSSGYHYGVSACEGCKGFFRRSIQKNMIYTCHRDKNCVINKVTRNRCQYCRLQKCFEVGMSKESVRNDRNKKKKETSKQECTESYEMTAELDDLTEKIRKAHQETFPSLCQLGKYTTNSSADHRVRLDLGLWDKFSELATKCIIKIVEFAKRLPGFTGLTIADQITLLKAACLDILILRICTRYTPEQDTMTFSDGLTLNRTQMHNAGFGPLTDLVFTFANQLLPLEMDDTETGLLSAICLICGDRQDLEEPTKVDKLQEPLLEALKIYIRKRRPSKPHMFPKILMKITDLRSISAKGAERVITLKMEIPGSMPPLIQEMLENSEGHEPLTPSSSGNTAEHSPSISPSSVENSGVSQSPLVQ
B4: RARg: Retinoic acid receptor γ (NR1B3), nuclear hormone receptor cDNA driver (protein, UniProt P13631 1-454, looked up)
Retinoic acid receptor gamma: MATNKERLFAAGALGPGSGYPGAGFPFAFPGALRGSPPFEMLSPSFRGLGQPDLPKEMASLSVETQSTSSEEMVPSSPSPPPPPRVYKPCFVCNDKSSGYHYGVSSCEGCKGFFRRSIQKNMVYTCHRDKNCIINKVTRNRCQYCRLQKCFEVGMSKEAVRNDRNKKKKEVKEEGSPDSYELSPQLEELITKVSKAHQETFPSLCQLGKYTTNSSADHRVQLDLGLWDKFSELATKCIIKIVEFAKRLPGFTGLSIADQITLLKAACLDILMLRICTRYTPEQDTMTFSDGLTLNRTQMHNAGFGPLTDLVFAFAGQLLPLEMDDTETGLLSAICLICGDRMDLEEPEKVDKLQEPLLEALRLYARRRRPSQPYMFPRMLMKITDLRGISTKGAERAITLKMEIPGPMPPLIREMLENPEMFEDDSSQPGPHPNASSEDEVPGGQGKGGLKSPA
B5: PPARd: Peroxisome proliferator activated receptor δ (NR1C2), cDNA driver (protein, UniProt Q03181 1-441, looked up)
Peroxisome …: MEQPQEEAPEVREEEEKEEVAEAEGAPELNGGPQHALPSSSYTDLSRSSSPPSLLDQLQMGCDGASCGSLNMECRVCGDKASGFHYGVHACEGCKGFFRRTIRMKLEYEKCERSCKIQKKNRNKCQYCRFQKCLALGMSHNAIRFGRMPEAEKRKLVAGLTANEGSQYNPQVADLKAFSKHIYNAYLKNFNMTKKKARSILTGKASHTAPFVIHDIETLWQAEKGLVWKQLVNGLPPYKEISVHVFYRCQCTTVETVRELTEFAKSIPSFSSLFLNDQVTLLKYGVHEAIFAMLASIVNKDGLLVANGSGFVTREFLRSLRKPFSDIIEPKFEFAVKFNALELDDSDLALFIAAIILCGDRPGLMNVPRVEAIQDTILRALEFHLQANHPDAQYLFPKLLQKMADLRQLVTEHAQMMQRIKKTETETSLHPLLQEIYKDMY
B6: FXR: Farnesoid X Receptor (NR1H4), cDNA driver (protein, UniProt Q96RI1 1-486, looked up)
Bile acid receptor: MVMQFQGLENPIQISPHCSCTPSGFFMEMMSMKPAKGVLTEQVAGPLGQNLEVEPYSQYSNVQFPQVQPQISSSSYYSNLGFYPQQPEEWYSPGIYELRRMPAETLYQGETEVAEMPVTKKPRMGASAGRIKGDELCVVCGDRASGYHYNALTCEGCKGFFRRSITKNAVYKCKNGGNCVMDMYMRRKCQECRLRKCKEMGMLAECMYTGLLTEIQCKSKRLRKNVKQHADQTVNEDSEGRDLRQVTSTTKSCREKTELTPDQQTLLHFIMDSYNKQRMPQEITNKILKEEFSAEENFLILTEMATNHVQVLVEFTKKLPGFQTLDHEDQIALLKGSAVEAMFLRSAEIFNKKLPSGHSDLLEERIRNSGISDEYITPMFSFYKSIGELKMTQEEYALLTAIVILSPDRQYIKDREAVEKLQEPLLDVLQKLCKIHQPENPQHFACLLGRLTELRTFNHHHAEMLMSWRVNDHKFTPLLCEIWDVQ

Test system: mPer1 promoter
Experiment: NHR-promoter luciferase screen, mPer1 promoter
Format: cell-based, mouse
Details: Per1 promoter reporter; co-transfected HR, with or without its ligand
How it was run: (§1)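 CV-1 cells were co-transfected with 50 ng NHR (homodimer or NHR/RXR heterodimer), 100 ng promoter-luciferase construct and 50 ng LacZ. Luciferase was normalized to LacZ and to a no-NHR/no-ligand control.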

| Molecule | Luc. act., normalized to lacZ |
| --- | --- |
| B1 | 186.7 |
| B2 | 85.4 |
| B3 | 89.3 |
| B4 | 120.3 |
| B5 | 187.6 |
| B6 | 98.0 |

Same assay, conditions: Per1 promoter reporter; co-transfected HR, with or without its ligand; relative to control

| Molecule | Normalized Luc. act., normalized to control |
| --- | --- |
| B1 | 1.3 |
| B2 | 0.6 |
| B3 | 0.6 |
| B4 | 0.8 |
| B5 | 1.3 |
| B6 | 0.7 |

Same assay, conditions: mPer1 promoter-luciferase, CV-1 cells, NHR +/- ligand, control = 1.00

| Molecule | luciferase activity normalized to lacZ activity and to a control, mPer1 |
| --- | --- |
| B1 | 1.30 |
| B2 | 0.59 |
| B3 | 0.62 |
| B4 | 0.84 |
| B5 | 1.30 |
| B6 | 0.68 |

Test system: hMDR1 promoter
Experiment: NHR-promoter luciferase screen, hMDR1 promoter
Format: cell-based, human
Details: MDR1 promoter; HR/ligand component
How it was run: as §1

| Molecule | Luc. act., normalized to lacZ | Normalized Luc. act., normalized to control |
| --- | --- | --- |
| B1 | 0.3 | 1.1 |
| B2 | 0.2 | 0.7 |
| B3 | 0.3 | 1.0 |
| B4 | 0.3 | 0.8 |
| B5 | 0.3 | 0.9 |
| B6 | 0.2 | 0.6 |

Same assay, conditions: transcription factor +/- ligand; control = 1.00

| Molecule | hMDR1 promoter reporter activity |
| --- | --- |
| B1 | 1.10 |
| B2 | 0.67 |
| B3 | 0.97 |
| B4 | 0.85 |
| B5 | 0.90 |
| B6 | 0.61 |

Test system: mADRP promoter
Experiment: NHR-promoter luciferase screen, mADRP promoter
Format: cell-based, mouse
Details: ADRP promoter; HR/ligand component
How it was run: as §1

| Molecule | Luc. act., normalized to lacZ | Normalized Luc. act., normalized to control |
| --- | --- | --- |
| B1 | 1021.2 | 2.1 |
| B2 | 628.8 | 1.3 |
| B3 | 799.4 | 1.6 |
| B4 | 765.4 | 1.5 |
| B5 | 694.0 | 1.4 |
| B6 | 658.3 | 1.3 |

Same assay, conditions: transcription factor +/- ligand; control = 1.00

| Molecule | mADRP promoter reporter activity |
| --- | --- |
| B1 | 2.05 |
| B2 | 1.26 |
| B3 | 1.61 |
| B4 | 1.54 |
| B5 | 1.39 |
| B6 | 1.32 |

Test system: mDio2 promoter
Experiment: NHR-promoter luciferase screen, mDio2 promoter
Format: cell-based, mouse
Details: Dio2; HR component without or with its ligand
How it was run: as §1

| Molecule | Luc. act., normalized to lacZ | Normalized Luc. act., normalized to control |
| --- | --- | --- |
| B1 | 32.7 | 2.1 |
| B2 | 40.3 | 2.6 |
| B3 | 32.7 | 2.1 |
| B4 | 35.2 | 2.2 |
| B5 | 19.1 | 1.2 |
| B6 | 20.2 | 1.3 |

Same assay, conditions: transcription factor +/- ligand; control = 1.00

| Molecule | mDio2 promoter reporter activity |
| --- | --- |
| B1 | 2.08 |
| B2 | 2.56 |
| B3 | 2.08 |
| B4 | 2.24 |
| B5 | 1.21 |
| B6 | 1.29 |

Test system: RevErba promoter
Experiment: NHR-promoter luciferase screen, RevErba (RVRa) promoter
Format: cell-based
Set-up: key to mRevErba promoter reporter activity / Normalized Luc. act., normalized to control: luciferase activity normalized to lacZ and to control (no NHR/ligand)
Details: RVRa promoter; HR component without or with ligand
How it was run: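 Reporter readout: RevErbα promoter-driven luciferase, corrected for LacZ transfection efficiency and expressed relative to a no-receptor or no-ligand control. Receptors (V5H6-tagged, pcDNA3.1), alone or with RXR, plus any ligand, were expressed in CV-1 cells.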

| Molecule | Luc. act., normalized to lacZ | Normalized Luc. act., normalized to control |
| --- | --- | --- |
| B1 | 42.5 | 1.5 |
| B2 | 34.6 | 1.2 |
| B3 | 45.6 | 1.6 |
| B4 | 39.6 | 1.4 |
| B5 | 25.3 | 0.9 |
| B6 | 31.7 | 1.1 |

Same assay, conditions: RVRa promoter; given only where activity is below control

| Molecule | negative reciprocal of normalized Luc. act. (fold repression; Table 33) |
| --- | --- |
| B5 | −1.106 |

Same assay, conditions: RVRa promoter; log10 of activity normalized to control

| Molecule | normalized Luc. act. on a logarithmic scale (column without head, Table 33) |
| --- | --- |
| B1 | 0.18 |
| B2 | 0.09 |
| B3 | 0.21 |
| B4 | 0.15 |
| B5 | −0.04 |
| B6 | 0.05 |

Same assay, conditions: transcription factor +/- ligand; control = 1.00

| Molecule | mRevErba promoter reporter activity |
| --- | --- |
| B1 | 1.52 |
| B2 | 1.24 |
| B3 | 1.63 |
| B4 | 1.42 |
| B5 | 0.90 |
| B6 | 1.13 |
